Data as given in patent publication US20240252641A1 (published 2024).

T1: human CD70, recombinant, N-terminally biotinylated (residues 39-193) (human, UniProt P32970 39-193, N-terminal biotin)
T1 chain: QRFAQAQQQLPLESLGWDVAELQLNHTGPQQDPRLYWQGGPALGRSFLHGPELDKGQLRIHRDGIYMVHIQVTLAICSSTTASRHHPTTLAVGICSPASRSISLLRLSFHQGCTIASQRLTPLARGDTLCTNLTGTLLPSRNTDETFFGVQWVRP


Target: T1, human CD70, recombinant, N-terminally …
Assay: Octet BLI

Binder	Kd [nM]
R3P5A1 VHH (VHH) VHH: QVQLQESGGGLVQPGGSLRLSCTASGSIFSATRMEWYRQAPGKQRELVAIVTSGGRTNYADSVNGRFTISRDNAKNTLYLQMNNLKPEDTAVYYCKFERYDYVNYWGRGTQVTVSS	0.025
R3P3H12 VHH (VHH) VHH: QVQLQESGGGLVQTGGSLRLSCTASGSIFDIVRGSWYRQAPGNQRELVAIITSGGATNYADSVAGRFTISRDSAWKALYLQMNSLKPEDTAVYFCNMESVRYRNYWGQGTQVTVSS	0.16
human CD27 fused to human Fc domain (Fc fusion) TPAPKSCPERHYWAQGKLCCQMCEPGTFLVKDCDQHRKAAQCDPCIPGVSFSPDHHTRPHCESCRHCNSGLLVRNCTITANAECACRNGWQCRDKECTECDPLPNPSLTARSSQALSPHPQPTHLPYVSEMLEARTAGHMQTLADFRQLPARTLSTHWPPQRSLCSSDFIRI	1.7

The remaining lines, values ahead:

Kd [nM]	Binder
0.027	R3aP3E8 VHH (VHH) VHH: QVQLQESGGGLVQPGGSLRLSCVASGSIFSIARMNWYRQAPGKQRELVAILNRAGRTDYADSVKGRFTISSDNAKTTVYLQMNSLKPEDTALYYCNLQTISYHDFWGQGTQVTVSS
0.036	R3aP9D10 VHH (VHH) VHH: QVQLQESGGGLVQAGGSLRLSCAAPGFTFDAYAIGWFRQAPGKEREGVICLSPSDGSTYYADSVKGRFTISSDNAKNTVYLQMNSLKPEDTAVYYCATPSWCSLKADFGSWGQGTQVTVSS

The binders below were run against 41D12 (LwH) (assay: Octet BLI).

Kd [nM]	Binder
0.001	CD70 (ligand, N-terminal biotin) QRFAQAQQQLPLESLGWDVAELQLNHTGPQQDPRLYWQGGPALGRSFLHGPELDKGQLRIHRDGIYMVHIQVTLAICSSTTASRHHPTTLAVGICSPASRSISLLRLSFHQGCTIASQRLTPLARGDTLCTNLTGTLLPSRNTDETFFGVQWVRP

Target: T1, human CD70, recombinant, N-terminally …
Assay: Octet BLI steady-state

Kd [nM]	Binder
55.7	50-TC7-III-A11 (scFv) scFv: QVQLVQSGAEVKRPGASVKVSCKASGYTFTSYYMHWVRQAPGQGLEWMGIINPSGGSTSYAQKFQGRVTMTRDTSTSTVYMELSSLRSEDTAVYYCAIEPGYCSGGSCYPDAFDIWGQGTTVTVSSGGSGGSGGSGGSQSVLTQPPSASGTPGQRVTISCSGSSSNIGSDYVYWYQRVPGTAPKLLIYRDNQRPSGVPDRFSGSKSGTSASLAISGLRSDDEADYYCAAWDDSLSGWVFGGGTKVTVL
41.7	39-TC6-IV-B08 (scFv) scFv: QVQLVESGGGVVQPGGSLRLSCAASGFTFSSYAMHWVRQAPGKGLEWVAVISYDGSNKYYADSVKGRFTISRDNSKNTLYLQMNSLRAEDTAVYYCARDGHPYYYGMDVWGQGTTVTVSSGGSGGSGGSGGSQSALTQPASVSGSPGQSITISCTGTSSDVGDYNYVSWYQHHPGKAPKLMIYDVSNRPSGVSNRFSGSKSGNTASLTISGLQAEDEADYYCGSYTGSDTWVFGGGTKVTVL
56.7	1-TC4-I-C10 (scFv) scFv: EVQLVQSGAEVKKPGESLKISCKGSGYSFTSYWIGWVRQMPGKGLEWMGIIYPGDSDTRYSPSFQGQVTISADKSISTAYLQWSSLKASDTAMYYCAISRTESYVMDVWGQGTTVTVSSGGSGGSGGSGGSQSALTQPRSVSGSPGQSVTISCTGTSSDVGGYNYVSWYQQHPGKAPKLMIYDVTNRPSGVPDRFSASKSDNTATLTVSGVQAEDEADYYCSSYAGSHELFGGGTKLTVL
